Experimental data from patent US7265202.

What was measured:
Test in all cases: cell-based or functional assay
[1] = biological target: STAT1 in interferon-treated human cells (human) (UniProt P42224)
[2] = biological target: STAT3-STAT1 heterodimer (human) (UniProt P40763)
[3] = biological target: STAT3-STAT3 homodimer (human) (UniProt P40763)
[4] = biological target: STAT3 (from a transfected expression vector)
[5] = biological target: STAT1 (from a transfected expression vector)
Chain of STAT1 (from a transfected expression vector) (P42224 2-750): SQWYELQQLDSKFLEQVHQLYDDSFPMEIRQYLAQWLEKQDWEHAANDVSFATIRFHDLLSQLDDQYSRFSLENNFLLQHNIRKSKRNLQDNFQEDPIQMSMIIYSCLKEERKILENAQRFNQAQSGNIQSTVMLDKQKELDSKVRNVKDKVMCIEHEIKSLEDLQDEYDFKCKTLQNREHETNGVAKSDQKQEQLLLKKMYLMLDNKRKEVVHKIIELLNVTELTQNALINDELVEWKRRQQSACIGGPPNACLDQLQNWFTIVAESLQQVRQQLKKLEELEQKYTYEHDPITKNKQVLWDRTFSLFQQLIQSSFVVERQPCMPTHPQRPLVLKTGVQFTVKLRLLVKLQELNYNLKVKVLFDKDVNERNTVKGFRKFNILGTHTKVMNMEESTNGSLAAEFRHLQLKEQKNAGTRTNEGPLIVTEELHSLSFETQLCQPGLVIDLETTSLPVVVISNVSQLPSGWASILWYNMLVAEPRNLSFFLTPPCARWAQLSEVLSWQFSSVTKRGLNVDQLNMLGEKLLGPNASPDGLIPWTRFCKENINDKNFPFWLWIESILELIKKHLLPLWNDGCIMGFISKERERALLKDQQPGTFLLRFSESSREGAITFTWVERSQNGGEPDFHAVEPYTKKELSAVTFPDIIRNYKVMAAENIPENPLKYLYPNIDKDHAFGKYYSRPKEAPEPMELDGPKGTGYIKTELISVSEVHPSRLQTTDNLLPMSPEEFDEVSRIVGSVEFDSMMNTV

Chain of STAT3-STAT1 heterodimer (human) (P40763 2-770 limits assumed, chain 1 of 2): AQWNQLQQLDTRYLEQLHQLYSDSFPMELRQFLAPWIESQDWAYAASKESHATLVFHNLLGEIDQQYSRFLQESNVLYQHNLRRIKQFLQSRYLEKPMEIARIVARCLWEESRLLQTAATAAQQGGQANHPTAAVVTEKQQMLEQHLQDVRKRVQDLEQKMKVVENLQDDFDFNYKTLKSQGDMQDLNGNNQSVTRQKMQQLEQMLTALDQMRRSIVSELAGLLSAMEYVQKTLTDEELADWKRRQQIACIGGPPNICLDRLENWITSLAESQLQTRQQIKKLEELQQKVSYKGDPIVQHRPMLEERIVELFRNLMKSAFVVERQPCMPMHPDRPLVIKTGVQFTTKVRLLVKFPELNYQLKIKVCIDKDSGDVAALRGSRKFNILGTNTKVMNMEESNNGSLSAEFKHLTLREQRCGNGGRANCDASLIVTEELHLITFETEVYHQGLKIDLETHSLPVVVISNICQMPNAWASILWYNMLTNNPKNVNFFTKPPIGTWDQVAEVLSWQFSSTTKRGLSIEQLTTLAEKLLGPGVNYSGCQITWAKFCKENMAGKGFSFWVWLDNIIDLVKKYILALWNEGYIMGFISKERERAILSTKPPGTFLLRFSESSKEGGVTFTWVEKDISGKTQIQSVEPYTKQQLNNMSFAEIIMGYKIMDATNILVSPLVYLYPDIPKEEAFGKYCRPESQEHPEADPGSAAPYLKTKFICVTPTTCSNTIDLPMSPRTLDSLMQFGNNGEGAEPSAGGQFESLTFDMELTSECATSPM
Chain of STAT3-STAT1 heterodimer (human) (P42224 2-750 limits assumed, chain 2 of 2, further chain): as the sequence (P42224 2-750) above
Chain of STAT3-STAT3 homodimer (human) (P40763 2-770 limits assumed): as the sequence (P40763 2-770 limits assumed, chain 1 of 2) above
Chain of STAT1 in interferon-treated human cells (human) (P42224 2-750 limits assumed): as the sequence (P42224 2-750) above

B1: recombinant fusion protein of glutathione-S-transferase (GST) with PIAS1 (protein, not shown: a dimerising Fc or GST)
chain: MADSAELKQMVMSLRVSELQVLLGYAGRNKHGRKHELLTKALHLLKAGCSPAVQMKIKELYRRRFPQKIMTPADLSIPNVHSSPMPPTLSPSTIPQLTYDGHPASSPLLPVSLLGPKHELELPHLTSALHPVHPDIKLQKLPFYDLLDELIKPTSLASDNSQRFRETCFAFALTPQQVQQISSSMDISGTKCDFTVQVQLRFCLSETSCPQEDHFPPNLCVKVNTKPCSLPGYLPPTKNGVEPKRPSRPINITSLVRLSTTVPNTIVVSWTAEIGRNYSMAVYLVKQLSSTVLLQRLRAKGIRNPDHSRALIKEKLTADSDSEIATTSLRVSLLCPLGKMRLTIPCRALTCSHLQCFDATLYIQMNEKKPTWVCPVCDKKAPYEHLIIDGLFMEILKYCTDCDEIQFKEDGSWAPMRSKKVQEVTASYNGVDGCLSSTLEHQVASHNQSSNKNKKVEVIDLTIDSSSDEEEEEPPAKRTCPSLSPTSPLSNKGILSLPHQASPVSRTPSLPAVDTSYINTSLIQDYRHPFHMTPMPYDLQGLDFFPFLSGDNQHYNTSLLAAAAAAVSDDQDLLHSSRFFPYTSSQMFLDQLSAGGSTSLPATNGSSSGSNSSLVSSNSLRESHGHGVASRSSADTASIFGIIPDIISLD
**Q.** How did the DNA binding activity in gel retardation assay, nuclear extracts of IFN-treated Daudi B cells [1] turn out when B1 was run?
**A.** 45 ng

B2: recombinant fusion protein of GST with PIAS3 (protein, not shown: a dimerising Fc or GST)
chain: MVMSFRVSELQVLLGFAGRNKSGRKHELLAKALHLLKSSCAPSVQMKIKELYRRRFPRKTLGPSDLSLLSLPPGTSPPVHPDVTMKPLPFYEVYGELIRPTTLASTSSQRFEEAHFTFALTPQQLQQILTSREVLPGAKCDYTIQVQLRFCLCETSCPQEDYFPPNLFVKVNGKLCPLPGYLPPTKNGAEPRGPAVRSTSHPWLDSQPLSPTPSLLIGHLSLDGITPCPCLVRQLTAGTLLQKLRAKGIRNPDHSRALIKEKLTADPDSEVATTSLPGVTHVPARKMRLTVPCRALTCAHLQSFDAALYLQMNEKKPTWTCPVCDKKAPYESLIIDGLFMEILNSCSDDDEIQFMEDGSWCPMKPKKEASEVCPPPGYGLDGLQYSAVQEGIQPESKKRVEVIDLTIESSSDEEDLPPTKKHCSPTSAAIPALPGSKGALTSGHQPSSVLRSPAMGTLGSDFLSSLPVHEYPPAFPLGADIQGLDLFSFLQTESQQYGPSVIISLDEQDTLGHFFQYRGTPSHFLGPLAPTLGSCHGSSTPAPPPGRVSSIVAPGSSLREGHGGPLPSGPSLTGCRSDVISLD
**Q.** B2 was tested. Which DNA-binding activity in mobility gel shift assay, IL6-treated HepG2 nuclear extracts [2] did it give?
**A.** 100 ng

**Q.** What about the DNA-binding activity in mobility gel shift assay, IL6-treated HepG2 nuclear extracts [3] of the same binder?
**A.** 100 ng

B3: FLAG-tagged PIAS3 (protein, not shown: small tags and cut ends)
chain: B2 chain
**Q.** How did the (4X)IRF-1 luciferase reporter in human 293 cells, IFN-α stimulation [4] turn out when B3 was run?
**A.** 1 µg

**Q.** What about the (4X)IRF-1 luciferase reporter in human 293 cells, IFN-α stimulation [5] of the same binder?
**A.** 1 µg
